This passage reports Kd results from publication PMC6143168 (Nature genetics, 2018).

A word on the Kd: it is the concentration at which binding is half-saturated. A lower Kd goes with tighter binding.

For the assay, the target named is T1, EsxW wildtype (2Thr) (Mycobacterium tuberculosis H37Rv, UniProt P9WNI3 1-98).
T1 sequence: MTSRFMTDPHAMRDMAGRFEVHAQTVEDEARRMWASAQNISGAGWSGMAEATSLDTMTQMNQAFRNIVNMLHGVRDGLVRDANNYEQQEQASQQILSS
The experiment in a line: MST.

B1: EsxV (natural protein)
chain: MTINYQFGDVDAHGAMIRAQAGSLEAEHQAIISDVLTASDFWGGAGSAACQGFITQLGRNFQVIYEQANAHGQKVQAAGNNMAQTDSAVGSSWA
Turning to B1, the Kd was 600 nM.
